Residue numbers refer to the chain shown, from its start. Numbers in names are those of the source.
B1: Gal3C[T243C, K139I, K196I]: Gal3C[T243C] variant with lysines K139 and K196 replaced by isoleucines (protein)
chain: MADNFSLHDALSGSGNPNPQGWPGAWGNQPAGAGGYPGASYPGAYPGQAPPGAYPGQAPPGAYPGAPGAYPGAPAPGVYPGPPSGPGAYPSSGQPSATGAYPATGPYGAPAGPLIVPYNLPLPGGVVPRMLITILGTVIPNANRIALDFQRGNDVAFHFNPRFNENNRRVIVCNTKLDNNWGREERQSVFPFESGIPFKIQVLVEPDHFKVAVNDAHLLQYNHRVKKLNEISKLGISGDIDLCSASYTMI
B2: Gal3C[T243C,K139I,K196I,K199I]: Gal3C[T243C] variant with lysines K139, K196 and K199 replaced by isoleucines (protein)
chain: B1 chain with K199I
B3: Gal3C: carbohydrate recognition domain of human galectin-3, residues A111 to E252; SEQ ID NO: 13 (protein)
chain: MAGPLIVPYNLPLPGGVVPRMLITILGTVKPNANRIALDFQRGNDVAFHFNPRFNENNRRVIVCNTKLDNNWGREERQSVFPFESGKPFKIQVLVEPDHFKVAVNDAHLLQYNHRVKKLNEISKLGISGDIDLTSASYTMILEHHHHHH

Legend:
[1] = Variable temperature circular dichroism (CD) thermal unfolding; type: physicochemical; settings: for Tm1 ± StDev: normalized CD at 220 nm vs. temperature, 3 replicates averaged, ramp 30-90° C. at 1° C. per minute; for thermal unfolding behaviour / formation of unfolding intermediate: result in words, for polymer conjugates the selected SEC fractions; for Tm2 ± StDev: second unfolding transition, cells printed as ND with footnote b
Protocol: CD spectroscopic data were recorded with an Applied Photophysics™ Chirascan spectrophotometer equipped with a Quantum Northwestern Peltier temperature control device and operating with Chirascan v4.7.0 and Pro-Data™ Viewer software. Samples were prepared in PBS at final concentrations of 10 μM. All samples were contained in 2 mm tapered quartz cuvettes, and a temperature probe was inserted through the cuvette cap to monitor the sample temperature in real time. The following parameters were used for constant temperature experiments: CD signal measured in millidegrees, bandwidth of 1.0 nm, wavelength scan from 200-280 nm, step size of 2.0 nm. Spectra were background subtracted against the sample buffer. For thermal unfolding experiments, a linear thermal ramp was applied from 30° C. to 90° C. at 1° C. per minute. All spectra were measured in triplicate, and data were normalized to account for slight differences in protein concentration.
To calculate melting temperatures of unconjugated Gal3C, Gal3C[T243C], and Gal3C[T243C] variants containing lysine replacements, the normalized data were fit to a Boltzmann sigmoidal function in Origin v8.5. For the data fitting, no parameters were fixed, and the ‘x’ parameter defined as the center of the data was interpreted as the melting temperature (Tm). Variable temperature CD data of PEGylated Gal3C[T243C] and Gal3C[T243C] variants were fit with a sum of two Boltzmann sigmoidal functions, as shown below:
where ‘A1’, ‘A2’, and ‘A3’ represent three plateaus of the CD signal, ‘dx1’ and ‘dx2’ are the change in x between the plateaus for each melting transition, and ‘x1’ and ‘x2’ are the two Tm values extracted by the fit for the first and second unfolding transitions, respectively. Because the third plateau, A3, occurred at temperatures higher than the experimentally accessible range, this value was estimated. A single wavelength for plotting on the y-axis was selected by calculating the wavelength of greatest CD signal change for each PEGylated construct.
To record a CD spectrum of Gal3C[T243C] with free PEG, a stock solution of methoxy-PEG (mPEG) in 1×PBS was added immediately before the experiment to a solution containing protein (20 μM, 1 ×PBS) to a final concentration of 22 μM mPEG. All thermal melt parameters were the same as listed in the above described experiments.
CD spectroscopic data were recorded with an Applied Photophysics Chirascan spectrophotometer equipped with a Quantum Northwestern Peltier temperature control device and operating with Chirascan v4.7.0 and Pro-Data Viewer software, following procedures used in our previous study.^4 Spectra were background subtracted against the sample buffer. For thermal unfolding experiments, a linear thermal ramp was applied from 30° C. to 90° C. at 1° C. per minute with samples concentrated to 10 μM in PBS. All spectra were measured in triplicate, and data were normalized to account for slight differences in protein concentration.
Full wavelength (200-280 nm) CD spectra for each construct (FIG. 43) were used to calculate a wavelength of greatest change (222 or 224 nm) to create single wavelength CD vs. temperature plots (FIG. 30H-J and FIG. 31F-G). The single wavelength CD signal vs. temperature plot of Gal3C[T243C] used data acquired at 220 nm, which was the wavelength of greatest change for the unmodified protein. To calculate melting temperatures, the normalized data were fit to a Boltzmann sigmoidal function in Origin v8.5. For the data fitting, no parameters were fixed, and the ‘x’ parameter defined as the center of the data was interpreted as the melting temperature (Tm).

[2] = Equilibrium binding of lactose, intrinsic tryptophan fluorescence; settings: ligand lactose; average ± standard deviation of 3 replicated experiments; PBS; read-out: Kd (equilibrium binding constant)
Protocol: (§1) Equilibrium binding data were recorded using a protocol adapted from a previous procedure from Restuccia, et al (38). Intrinsic tryptophan fluorescence was monitored using a Cary Eclipse™ Fluorescence Spectrophotometer (Agilent) operating with Cary Eclipse™ WinFLR software version 1.2 in ‘Scan Mode’. The instrument method parameters were as follows: excitation wavelength was 280 nm, the acquisition range was from 290 nm to 440 nm and the photomultiplier tube sensitivity was set to ‘medium’. Samples were prepared at final concentrations of 1 μM for Gal3C[T243C] or 5 μM Gal3C[T243C]-PEG in 800 ∥L, in PBS for each titration. Samples were pipetted into 0.7×0.7 cm quartz cuvettes with a micro stir bar. Each new experiment was first zeroed against PBS to remove the small background signal from the buffer. […]
(§2) The binding affinity and specificity of Gal3C[T243C]-PEG was compared with Gal3C[T243C] and Gal3C (see FIG. 1C, FIG. 9 and FIG. 10) via an inherent tryptophan fluorescence assay optimized to ensure equilibrium binding conditions. Binding of lactose or LacNac quenches the fluorescence of W181, located adjacent to the bound sugar in the crystal structure of Gal3C, thus permitting direct measurement of ligand Kd values.

[3] = tested on: breast cancer; settings: breast cancer animal models; cited from earlier work
[4] = Equilibrium binding of LacNac, intrinsic tryptophan fluorescence; settings: ligand LacNac; average ± standard deviation of 3 replicated experiments; PBS; read-out: Kd (equilibrium binding constant)
Protocol: as §1
as §2, with “values. […]” for “values.”

| Molecule | Tm1 ± StDev [1] | Tm1 ± StDev ([1]; listed as Gal3C[T243C,K139I]) | thermal unfolding behaviour / formation of unfolding intermediate [1] | Tm2 ± StDev [1] | Tm / Tm1 ([1]; values of Summary of Results, Tm for unconjugated protein, Tm1 for PEG conjugate) | Tm1 ± StDev ([1]; listed as Gal3C[T243C,K139I,K196I]) | Kd [2] | tumor growth [3] | Kd [4] | fitted melting temperature (Tm) ([1]; FIG. 13, normalized CD intensity at 220 nm, Boltzmann sigmoidal fit) |
| --- | --- | --- | --- | --- | --- | --- | --- | --- | --- | --- |
| Gal3C[T243C, K139I]: Gal3C[T243C] variant with lysine K139 replaced by isoleucine | 52.5 ± 0.4 °C | 52.5 °C | cooperative one step unfolding | ND^b (Higher than detectable by instrument (>90° C.)) | 52.7 °C |  |  |  |  |  |
| B1 | 60.5 ± 0.6 °C |  | cooperative one step unfolding | ND^b (Higher than detectable by instrument (>90° C.)) |  | 60.5 °C |  |  |  |  |
| B2 |  |  | significantly altered unfolding profile |  |  |  |  |  |  |  |
| B3 | 58.8 ± 0.6 °C |  |  |  |  |  | 529 ± 125 µM | inhibiting tumor growth | 231 ± 32.3 µM | 58.4 °C |

— patent US20240100174A1, “PROTEIN-PEG INTERACTIONS THAT REDIRECT THE THERMAL UNFOLDING PATHWAY OF PEGYLATED HUMAN GALECTIN-3C” (UNIVERSITY OF FLORIDA RESEARCH FOUNDATION, INCORPORATED, priority 2022, published 2024)
